Assay results from patent US20150203548A1 (GOVERNMENT OF THE UNITED STATES OF AMERICA AS REPRESENTED …, published 2015).

Molecular target: T1, Staphylococcal Enterotoxin B (SEB) (UniProt P01552 28-266)
T1 sequence: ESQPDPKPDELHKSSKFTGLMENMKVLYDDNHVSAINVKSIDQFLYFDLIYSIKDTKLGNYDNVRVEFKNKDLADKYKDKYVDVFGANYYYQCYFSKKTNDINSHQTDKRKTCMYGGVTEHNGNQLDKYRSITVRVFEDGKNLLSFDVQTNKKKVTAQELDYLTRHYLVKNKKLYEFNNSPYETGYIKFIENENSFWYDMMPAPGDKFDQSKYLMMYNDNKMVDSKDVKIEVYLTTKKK
Assay: SPR (ProteON XPR36), antigen-coated chip

B1: sdAb A3 (VHH)
VHH: EVQLVESGGGLVQAGDSLRLSCTASGRTFSRAVMGWFRQAPGKEREFVAAISAAPGTAYYAFYADSVRGRFSISADSAKNTVYLQMNSLKPEDTAVYYCAADLKMQVAAYMNQRSVDYWGQGTQVTVSS
- binding result: binds
